The assay is described as follows: Fluorescence emission spectra without and with saturating ligand (wavelength shift, ΔIstd, ΔRmax). Set-up: key to ΔIstd: intensity change at λstd normalized to average intensity; key to ΔRmax: ratio change of two emission band areas, unbound vs saturated. The following applies: unbound vs ligand-saturated; for ΔIstd: standard intensity change; for ΔRmax: standard ratiometric change. As for the experimental part:
Fluorimetry. All measurements were conducted with an SLM Aminco-Bowman series 2 fluorimeter, with sample stirring at 25° C. Fluorescence emission spectra were acquired with excitation and emission slit widths of 4 and 8 nm, respectively. Photomultiplier tube potential was maintained between 400 and 800 volts. Protein concentrations were in the range of 50 to 1000 nM. Fluorophore-specific excitation was at the following approximate wavelengths: tryptophan, 290 nm; acrylodan, 390 nm; fluorescein, 485 nm; pyrene, 340 nm; NBD and NBDE, 490 nm; JPW4039, 485 nm; JPW4042, 470 nm; JPW4045, 470 nm.
Assessment of fluorescent biosensor function. Fluorescence emission spectra of bPBP-fluorophore conjugates were recorded in the absence and presence of saturating ligand concentrations. Spectral changes were characterized by four parameters: wavelength shift (the difference between the wavelengths of emission maximum in the unbound and ligand-saturated states), direction of intensity change (increase or decrease in intensity at the wavelengths of maximum emission in the two states), standard intensity change (ΔIstd), and standard ratiometric change (ΔR). ΔIstd is defined as the normalized intensity change relative to the average intensity, determined at the wavelength mid-point between the two emission maxima:
[formula] where λstd=(λmax, unbound+λmax, saturated)/2 and I1, I2 are the fluorescence intensities at λstd of each spectrum respectively (FIG. 4A). ΔR is defined in terms of two emission bands, A1 ([λ1, λ2]) and A2 ([λ3, λ4]) (FIG. 4B):
[formula] where ^∘A1, […] the areas in the absence of ligand, and ^∞A1, ^∞A2 the areas in the presence of saturating ligand. A computer program was used to enumerate ΔR for all possible pairs of wavelength bands in the two spectra, to identify the optimal sensing condition, defined as the maximum value of ΔR. Adjustable parameters of the algorithm, and their values used for ΔRmax quantities reported here, are: step size (2 nm), step width (10 nm), minimum integration area limit (fraction of total: 0.1), and maximum integration area limit (fraction of total: 1).

Changes are numbered by the printed parent chain. Names and notes keep the numbering of the source.

The text below walks through data of patent US9625458B2, “Biosensor” (priority 2002, dated 2017).

B1: phosphate BP S39C JPW4045 (conjugate, UniProt P0AG82 26-346, looked up, variant S39C)
Phosphate-binding protein PstS: EASLTGAGATFPAPVYAKWADTYQKETGNKVNYQGIGSCGGVKQIIANTVDFGASDAPLSDEKLAQEGLFQFPTVIGGVVLAVNIPGLKSGELVLDGKTLGDIYLGKIKKWDDEAIAKLNPGLKLPSQNIAVVRRADGSGTSFVFTSYLAKVNEEWKNNVGTGSTVKWPIGLGGKGNDGIAAFVQRLPGAIGYVEYAYAKQNNLAYTKLISADGKPVSPTEENFANAAKGADWSKTFAQDLTNQKGEDAWPITSTTFILIHKDQKKPEQGTEVLKFFDWAYKTGAKQANDLDYASLPDSVVEQVRAAWKTNIKDSSGKPLY
modifications: JPW4045 dye conjugate
B1: the ΔIstd turned out to be 0.18 and the ΔRmax came out at 4.13.

B2: phosphate BP S39C Acrylodan (conjugate, UniProt P0AG82 26-346, looked up, variant S39C)
Phosphate-binding protein PstS: B1 Phosphate-binding protein PstS
modifications: acrylodan conjugate
As to B2, the ΔIstd is recorded as 0.10 and the ΔRmax was 0.80.

B3: phosphate BP S39C NBD (conjugate, UniProt P0AG82 26-346, looked up, variant S39C)
Phosphate-binding protein PstS: B1 Phosphate-binding protein PstS
modifications: NBD dye conjugate
As for B3, the ΔIstd was 0.18 and the ΔRmax is on record as 0.57.

B4: phosphate BP S39C Fluorescein (conjugate, UniProt P0AG82 26-346, looked up, variant S39C)
Phosphate-binding protein PstS: B1 Phosphate-binding protein PstS
modifications: fluorescein conjugate
In the case of B4, the ΔIstd stood at 0.03 and the ΔRmax came out at 0.21.

B5: ribose BP A234C JPW4039 (conjugate, UniProt P02925 26-296, looked up, variant A234C)
Ribose import binding protein …: KDTIALVVSTLNNPFFVSLKDGAQKEADKLGYNLVVLDSQNNPAKELANVQDLTVRGTKILLINPTDSDAVGNAVKMANQANIPVITLDRQATKGEVVSHIASDNVLGGKIAGDYIAKKAGEGAKVIELQGIAGTSAARERGEGFQQAVAAHKFNVLASQPADFDRIKGLNVMQNLLTAHPDVQAVFAQNDEMALGALRALQTAGKSDVMVVGFDGTPDGEKAVNDGKLAATICQLPDQIGAKGVETADKVLKGEKVQAKYPVDLKLVVKQ
modifications: JPW4039 dye conjugate
As to B5, the ΔIstd turned out to be 0.37 and the ΔRmax turned out to be 1.29.

B6: ribose BP D165C JPW4045 (conjugate, UniProt P02925 26-296, looked up, variant D165C)
Ribose import binding protein …: B5 Ribose import binding protein … with D165C, C234A
modifications: JPW4045 label
For B6, the ΔIstd worked out at 0.04 and the ΔRmax stood at 0.77.

B7: ribose BP L265C Acrylodan (conjugate, UniProt P02925 26-296, looked up, variant L265C)
Ribose import binding protein …: B5 Ribose import binding protein … with C234A, L265C
modifications: acrylodan conjugate
For B7, the ΔIstd turned out to be 0.20 and the ΔRmax is 0.70.

B8: ribose BP L236C JPW4045 (conjugate, UniProt P02925 26-296, looked up, variant L236C)
Ribose import binding protein …: B5 Ribose import binding protein … with C234A, L236C
modifications: JPW4045 dye label
Turning to B8, the ΔIstd was 0.25 and the ΔRmax came to 1.70.

B9: ribose BP L265C JPW4039 (conjugate, UniProt P02925 26-296, looked up, variant L265C)
Ribose import binding protein …: B5 Ribose import binding protein … with C234A, L265C
modifications: JPW4039 label
Regarding B9, the ΔIstd amounted to 0.01 and the ΔRmax came out at 0.11.

B10: ribose BP A234C Acrylodan (conjugate, UniProt P02925 26-296, looked up, variant A234C)
Ribose import binding protein …: B5 Ribose import binding protein …
modifications: acrylodan label
Turning to B10, the ΔIstd was found to be 0.01 and the ΔRmax is given as 1.18.

B11: ribose BP A234C NBD (conjugate, UniProt P02925 26-296, looked up, variant A234C)
Ribose import binding protein …: B5 Ribose import binding protein …
modifications: NBD conjugate
For the molecule B11, the ΔIstd came out at 0.28 and the ΔRmax was found to be 1.63.

B12: ribose BP L236C JPW4039 (conjugate, UniProt P02925 26-296, looked up, variant L236C)
Ribose import binding protein …: B5 Ribose import binding protein … with C234A, L236C
modifications: JPW4039 dye conjugate
In the case of B12, the ΔIstd was determined as 0.08 and the ΔRmax amounted to 0.29.

B13: ribose BP L265C JPW4045 (conjugate, UniProt P02925 26-296, looked up, variant L265C)
Ribose import binding protein …: B5 Ribose import binding protein … with C234A, L265C
modifications: JPW4045 label
B13: the ΔIstd turned out to be 0.02 and the ΔRmax turned out to be 0.12.

B14: ribose BP L265C JPW4042 (conjugate, UniProt P02925 26-296, looked up, variant L265C)
Ribose import binding protein …: B5 Ribose import binding protein … with C234A, L265C
modifications: JPW4042 label
With B14, the ΔIstd was found to be 0.91 and the ΔRmax is reported as 2.13.

B15: ribose BP L236C JPW4042 (conjugate, UniProt P02925 26-296, looked up, variant L236C)
Ribose import binding protein …: B5 Ribose import binding protein … with C234A, L236C
modifications: JPW4042 dye conjugate
In the case of B15, the ΔIstd is recorded as 0.55 and the ΔRmax was 3.58.

B16: ribose BP A234C JPW4042 (conjugate, UniProt P02925 26-296, looked up, variant A234C)
Ribose import binding protein …: B5 Ribose import binding protein …
modifications: JPW4042 dye conjugate
B16: the ΔIstd came to 0.06 and the ΔRmax was found to be 0.99.

B17: ribose BP T135C Fluorescein (conjugate, UniProt P02925 26-296, looked up, variant T135C)
Ribose import binding protein …: B5 Ribose import binding protein … with T135C, C234A
modifications: fluorescein conjugate
Consider B17, for which the ΔIstd is 0.18 and the ΔRmax is on record as 1.79.

B18: ribose BP D165C Acrylodan (conjugate, UniProt P02925 26-296, looked up, variant D165C)
Ribose import binding protein …: B5 Ribose import binding protein … with D165C, C234A
modifications: acrylodan conjugate
Turning to B18, the ΔIstd is recorded as 0.00 and the ΔRmax stood at 0.37.

B19: ribose BP D165C JPW4039 (conjugate, UniProt P02925 26-296, looked up, variant D165C)
Ribose import binding protein …: B5 Ribose import binding protein … with D165C, C234A
modifications: JPW4039 dye conjugate
On to B19, for which the ΔIstd is 0.13 and the ΔRmax was 0.36.

B20: ribose BP T135C Acrylodan (conjugate, UniProt P02925 26-296, looked up, variant T135C)
Ribose import binding protein …: B5 Ribose import binding protein … with T135C, C234A
modifications: acrylodan conjugate
In the case of B20, the ΔIstd is given as 0.31 and the ΔRmax is listed as 6.26.

B21: ribose BP E192C Fluorescein (conjugate, UniProt P02925 26-296, looked up, variant E192C)
Ribose import binding protein …: B5 Ribose import binding protein … with E192C, C234A
modifications: fluorescein label
In the case of B21, the ΔIstd came to 0.12 and the ΔRmax is 1.31.

B22: ribose BP L236C Fluorescein (conjugate, UniProt P02925 26-296, looked up, variant L236C)
Ribose import binding protein …: B5 Ribose import binding protein … with C234A, L236C
modifications: fluorescein conjugate
With B22, the ΔIstd came to 0.02 and the ΔRmax is 0.29.

B23: ribose BP D165C JPW4042 (conjugate, UniProt P02925 26-296, looked up, variant D165C)
Ribose import binding protein …: B5 Ribose import binding protein … with D165C, C234A
modifications: JPW4042 dye conjugate
B23: the ΔIstd stood at 0.06 and the ΔRmax worked out at 0.27.

B24: ribose BP E192C JPW4039 (conjugate, UniProt P02925 26-296, looked up, variant E192C)
Ribose import binding protein …: B5 Ribose import binding protein … with E192C, C234A
modifications: JPW4039 dye label
Take B24: the ΔIstd is 0.44 and the ΔRmax was determined as 0.34.

B25: ribose BP T135C JPW4042 (conjugate, UniProt P02925 26-296, looked up, variant T135C)
Ribose import binding protein …: B5 Ribose import binding protein … with T135C, C234A
modifications: JPW4042 dye conjugate
Consider B25, for which the ΔIstd was 0.02 and the ΔRmax turned out to be 0.35.

B26: ribose BP E192C NBD (conjugate, UniProt P02925 26-296, looked up, variant E192C)
Ribose import binding protein …: B5 Ribose import binding protein … with E192C, C234A
modifications: NBD dye conjugate
For B26, the ΔIstd is 0.00 and the ΔRmax amounted to 1.67.

B27: ribose BP L265C NBD (conjugate, UniProt P02925 26-296, looked up, variant L265C)
Ribose import binding protein …: B5 Ribose import binding protein … with C234A, L265C
modifications: NBD dye conjugate
As to B27, the ΔIstd worked out at 0.01 and the ΔRmax turned out to be 0.13.

B28: ribose BP L236C NBD (conjugate, UniProt P02925 26-296, looked up, variant L236C)
Ribose import binding protein …: B5 Ribose import binding protein … with C234A, L236C
modifications: NBD label
Regarding B28, the ΔIstd worked out at 0.11 and the ΔRmax was 1.96.
